{"source": "patent US10801027B2", "about": "“Inhibitors of SRSF1 to treat neurodegenerative disorders” (University of Sheffield, priority 2016, dated 2020)", "molecules": {"B1": {"name": "SRSF1-m2: FLAG-tagged SRSF1 11-196 double R117,118A mutant (protein)", "chain": "AGNNDCRIYVGNLPPDIRTKDIEDVFYKYGAIRDIDLKNRRGGPPFAFVEFEDPRDAEDAVYGRDGYDYDGYRLRVEFPRSGRGTGRGGGGGGGGGAPRGRYGPPSAASENRVVVSGLPPSGSWQDLKDHMREAGDVCYADVYRDGTGVVEFVRKEDMTYAVRKLDNTKFRSHEGETAYIRVKVDG", "modifications": "left off: small tags and cut ends", "notes": "FLAG-tagged SRSF1 11-196 double R117,118A mutant"}, "B2": {"name": "SRSF1 11-196 wild type: FLAG-tagged SRSF1 amino-acids 11-196 wild type (protein)", "chain": "B1 chain with A107R, A108R", "modifications": "left off: small tags and cut ends", "notes": "FLAG-tagged SRSF1 amino-acids 11-196 wild type"}}, "key": {"[1]": {"conditions": "MND patients; cited from earlier work"}, "[2]": {"system": "poly-Gly-Pro and poly-Gly-Ala DPRs", "assay": "Western blot of RAN-translated DPRs in N2A cells", "assay_type": "cell-based, mouse", "conditions": "G4C2×38 or C4G2×39 constructs, 72 h", "procedure": "Neuro-2a (ATCC) cells were cultured in Dulbecco's Modified Eagle Medium (Sigma) supplemented with 10% fetal bovine serum [FBS] (Gibco), 5 U/ml Penstrep (Lonza) and 5 mM sodium pyruvate. Cells were maintained in a […] incubator with 5% CO2. 75,000 Neuro-2a cells were split into each well of 24-well plates and transfected for 72 h with 500 ng pcDNA6.2-GW/EmGFP-Control miR RNAi (ThermoFisher) or pcDNA6.2-GW/EmGFP-mouse SRSF1 miR1+2 RNAi and 200 ng pcDNA 3.1/RAN-G4C2×38-sense or RAN-C4G2×39-antisense using 3 μg PEI/1 μg DNA and one tenth medium volume OptiMEM (ThermoFisher).\nHEK cells were transfected for 72 h with 650 ng pcDNA6.2-GW/EmGFP-Control miRNA, pCDNA6.2-GW/EmGFP-human SRSF1 miR1+2 RNAi or LV-EmGFP-human SRSF1 miR1+2 RNAi constructs and 50 ng p3×FLAG/human-SRSF1 using 3.5 μg PEI/ml media and one tenth medium volume of OptiMEM. Neuro-2a cells were split into each well of 24-well plates (75,000 cells/well) and transfected for 72 h with 350 ng pcDNA6.2-GW/EmGFP-Control miR RNAi (ThermoFisher), pcDNA6.2-GW/EmGFP-mouse SRSF1 miR1+2 RNAi, p3×FLAG, p3×FLAG/SRSF1 (11-196), p3×FLAG/SRSF1 (11-196)-m2 or p3×FLAG/SRSF1 (11-196)-m4 and 350 ng pcDNA 3.1/RAN-G4C2×38-sense or RAN-C4G2×39-antisense using 3 μg PEI/1 μg DNA and one tenth medium volume OptiMEM.\nProteins were extracted from HEK or Neuro-2a cells 72 hours after transfection. […] Protein extracts were quantified using Bradford Reagent (BioRAD), resolved by SDS-PAGE, electroblotted onto nitrocellulose membrane and probed using the relevant primary antibody. […] (kindly received from Prof Stuart Pickering Brown) primary antibodies were detected with horseradish peroxidase (HRP)-conjugated rabbit secondary antibody [1:5000 dilution] […] (kindly provided from Prof Dieter Edbauer) primary antibodies were detected using HRP-conjugated mouse secondary antibody [1:5000 dilution] […] For dot blot analysis, 50 μg total protein extracts prepared in ice-cold lysis buffer were loaded onto a nitrocellulose membrane using a microfiltration apparatus (Biorad) and analysed by western immunoblotting as previously described."}, "[3]": {"molecular_target": "T1, NXF1 (Mus musculus, UniProt Q99JX7)", "T1 construct": "endogenous in cells; host or cells: Neuro-2a (N2A)", "T1 sequence (Q99JX7 1-618)": "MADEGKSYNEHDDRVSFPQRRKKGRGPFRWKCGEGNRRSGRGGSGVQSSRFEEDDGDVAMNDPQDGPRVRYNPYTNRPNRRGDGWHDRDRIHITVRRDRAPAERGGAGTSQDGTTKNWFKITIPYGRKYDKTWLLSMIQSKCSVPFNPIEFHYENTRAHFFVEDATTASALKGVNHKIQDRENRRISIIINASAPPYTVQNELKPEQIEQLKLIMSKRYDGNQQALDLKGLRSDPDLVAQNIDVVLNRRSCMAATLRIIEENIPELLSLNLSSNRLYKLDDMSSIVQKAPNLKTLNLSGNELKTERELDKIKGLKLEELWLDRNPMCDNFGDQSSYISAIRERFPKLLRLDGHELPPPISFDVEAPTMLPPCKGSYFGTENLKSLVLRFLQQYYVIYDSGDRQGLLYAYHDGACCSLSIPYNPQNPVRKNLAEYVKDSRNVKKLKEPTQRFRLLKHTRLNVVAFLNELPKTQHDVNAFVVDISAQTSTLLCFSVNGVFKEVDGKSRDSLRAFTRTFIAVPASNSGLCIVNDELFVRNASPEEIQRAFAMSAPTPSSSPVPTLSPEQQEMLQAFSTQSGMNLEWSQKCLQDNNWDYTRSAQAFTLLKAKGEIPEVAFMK", "assay": "Anti-FLAG co-immunoprecipitation of endogenous NXF1 in N2A cells", "assay_type": "binding", "conditions": "FLAG-tagged protein, 48 h", "procedure": "Cells were split into 1×10 cm plates/treatment (1.5×10^6 cells/plate) and transfected with 15 μg p3×FLAG, p3×FLAG/SRSF1 (11-196), p3×FLAG/SRSF1 (11-196)-m2 or p3×FLAG/SRSF1(11-196)-m4 using 3 μg PEI/1 μg DNA and one tenth medium volume OptiMEM.\nProteins were extracted from Neuro-2a cells 48 hours after transfection. Cells were briefly washed in ice cold PBS, scraped into 500 μl ice cold lysis buffer, passed through a 21G gauge needle 10 times and left to lyse on ice for 10 minutes. Lysed cells were cleared by centrifugation at maximum speed at 4° C. for five minutes and protein extracts were quantified using Bradford Reagent. 2 mg of total protein in 1 ml lysis buffer was incubated with 30 μl anti-FLAG® M2 affinity resin slurry (Sigma A2220) (which had been blocked overnight with 1% BSA in IP lysis buffer) for 2 hours at 4° C. on a rotating wheel. […] 30 μg total protein and 15 μl captured protein complexes were resolved by SDS-PAGE, electroblotted onto nitrocellulose membrane and probed using FLAG, NXF1 clone 53H8 [1:2000] (Abcam ab50609) and […]-tubulin."}}, "note": "Changes are numbered by the printed parent chain.", "data": [{"molecule": "Nc1nc2ccc(OC(F)(F)F)cc2s1", "note": "[riluzole]", "values": [{"measurement": "life extension", "setting": "[1]", "result": "around 6 months"}]}, {"molecule": "B1", "values": [{"measurement": "effect on RAN translation / production of sense and antisense DPRs", "setting": "[2]", "result": "little effect"}, {"measurement": "co-immunoprecipitation of endogenous NXF1", "setting": "[3]", "result": "specifically immunoprecipitated"}]}, {"molecule": "B2", "values": [{"measurement": "effect on RAN translation / production of sense and antisense DPRs", "setting": "[2]", "result": "no"}, {"measurement": "co-immunoprecipitation of endogenous NXF1", "setting": "[3]", "result": "specifically immunoprecipitated"}]}]}
